± gives the uncertainty stated by the source.
Assay: amyloid nucleation score (Sup35N fusion, yeast selection) (log enrichment); library NNK1; higher = more nucleation; inactive = no reads after selection
In short: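 On medium lacking adenine and uracil, psi-negative yeast expressing peptides of 20 random codons fused to Sup35N were grown 7 days at 30°C after a 24-hour induction with 100 μM copper sulfate. Illumina sequencing of input and output plasmid inserts gave the reads, and sequences under 100 input reads were excluded. The nucleation score is the DiMSum log enrichment of output over input reads, centred on the mode score of non-aggregating sequences.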

Row | Substance | amyloid nucleation score
1 | FIQNKVLVFQSNSTNDLLFP | 6.071 ± 0.058
2 | FIVHANWQSFYFLLRLMVF | -0.109 ± 1
3 | FIVLAYCLSFWVAIYPEVHM | 0.581 ± 0.73
4 | FIYLENAS | 0.532 ± 0.38
5 | FKIFD | 1.15 ± 0.81
6 | FKKNKQSSVKFGSNKSLQIG | 0.027 ± 0.51
7 | FKMSWSTPARYNNGLTRLIF | -0.379 ± 0.63
8 | FKRLNRFYRSLAIMTSTSHL | -0.149 ± 0.69
9 | FKSYPVGIRRHCHGTSMLMG | 0.059 ± 0.31
10 | FKTRSRNRLVCCYEESRTDL | 0.536 ± 0.34
11 | FKVTFNRDVPNESSTALCSV | -1.01 ± 1.7
12 | FKYSFMIYNLARSVCYCTVS | -0.002 ± 1.4
13 | FKYSGRCWGANECIKNYNYV | 0.07 ± 0.39
14 | FLCVF | 0.097 ± 0.88
15 | FLFLPVSVSYYEDDSGHVLC | inactive
16 | FLGLLVPFFNWRDKKRKYSG | 0.012 ± 0.79
17 | FLGPIAIVGRHLMICIMQSH | 0.855 ± 0.43
18 | FLKLPFTKSSWSF | -0.317 ± 1.4
19 | FLKSYLLRC | 0.012 ± 0.63
20 | FLLAPTLL | -0.367 ± 1
21 | FLLDMV | -0.175 ± 0.45
22 | FLLLAC | 0.197 ± 0.9

Row | Substance | amyloid nucleation score
23 | FLLLTSMNPLEWTYGRFWGV | -0.597 ± 0.72
24 | FLLNSPQNASYSPHRRLAFD | -1.38 ± 0.92
25 | FLNFPYMLRDCLMIRFIELE | inactive
26 | FLPMSLGWVHKQLIFSPRWY | 1 ± 0.66
27 | FLPWVLFFSQ | 0.816 ± 0.62
28 | FLRCRFLYQQ | 0.4 ± 0.39
29 | FLRHLSSCCHLATLCVDWGA | -0.103 ± 1.4
30 | FLRNNKIPVVFFSPS | inactive
31 | FLSRCGWAYVMV | -0.493 ± 0.26
32 | FLSSCDGGLIGMHGTGFTAQ | 0.426 ± 0.45
33 | FLSYYTCILFPGDMHGSYLS | 7.226 ± 0.055
34 | FLTFKMN | inactive
35 | FLTTLGWSYHRQNQLRMPRF | 2.24 ± 0.16
36 | FLVHSTGGHVNISFTSVIYL | 7.889 ± 0.048
37 | FLYPVHLVLHCSTSYMQTDS | 0.241 ± 1.2
38 | FLYRSYVNIGLGGANISNLV | 4.3 ± 0.12
39 | FMAGNFSFFLRRNA | inactive
40 | FMDMDRLMSRGLQVNKGVML | -0.228 ± 0.68
41 | FMDWIVSCGKCKIGSYYLCI | -0.388 ± 0.29
42 | FMLWCQFKRDNIKRTDRLAV | 1.46 ± 0.78
43 | FMSEDESYVCYRWGWYDRIF | -0.919 ± 1
44 | FMSYFVPSQQYLTASSRQKT | -0.544 ± 1.1

Row | Substance | amyloid nucleation score
45 | FMVLDQFIE | 0.383 ± 0.95
46 | FMYSKPVI | -0.314 ± 0.78
47 | FNDGYSVAEA | 0.998 ± 0.48
48 | FNFCHE | -0.392 ± 0.6
49 | FNFRSS | -0.618 ± 0.72
50 | FNIAALSEYCGPLKSNAHW | -0.27 ± 0.64
51 | FNIYSQMYIW | 5.32 ± 0.066
52 | FNKYYMFEST | -0.038 ± 0.33
53 | FNLALDRGR | -0.062 ± 0.32
54 | FNLATIPISQFITPNSPLLR | -0.091 ± 1.1
55 | FNLGSGDWL | -0.842 ± 0.65
56 | FNSFCFQNVTLW | inactive
57 | FNVHNWAQRTVEHGETLFRD | 1.57 ± 0.45
58 | FNYFVLFSLSFSTVFSFNDT | 3.37 ± 0.081
59 | FNYFYVLYS | 5.35 ± 0.074
60 | FNYYSA | -0.012 ± 0.48
61 | FPDLYVWRCWKSQGHSWHGV | 0.573 ± 0.52
62 | FPGSRDPGVNRSWSYNSIDT | 1.87 ± 0.14
63 | FQAQWNLSTCPNAFCLFLIR | 5.82 ± 0.059
64 | FQDLSLAVSQCLPCVIIGDC | -0.131 ± 0.44
65 | FQGTIR | 0.193 ± 1
66 | FQSSNSSYITIHYCLVGRFT | 6.013 ± 0.048

Row | Substance | amyloid nucleation score
67 | FQYEWNLVIW | -0.074 ± 0.4
68 | FRCGKGVVMSYELVNSIVGS | 0.407 ± 0.76
69 | FRDCLLVRYLCNVLTGDCTH | 1.94 ± 0.52
70 | FRGTVFSW | -0.26 ± 0.69
71 | FRIRRGKRSVHTVNFAFAEV | 0.583 ± 0.8
72 | FRLLRSK | 0.644 ± 0.56
73 | FRMRHQERMAGTPVGMGLYC | -0.327 ± 0.69
74 | FRRHYNKMNFFVGFRERMCG | -0.262 ± 0.49
75 | FRRLHRYRWDNECLGMQVGS | -1.48 ± 2.1
76 | FRRLMLWSCSV | -0.098 ± 1.3
77 | FRSVVWRLHTFY | -0.075 ± 0.5
78 | FRTRGFLHSKVLVRLQYWIK | 0.494 ± 0.5
79 | FRVQVTYIFRSLEICDPTVG | inactive
80 | FRYGYLFKLSNVWIDDMLRR | 1.96 ± 0.55
81 | FRYYRF | 0.522 ± 0.45
82 | FSACLSNIYD | inactive
83 | FSCSTCNVCNERHPEVFTYD | 1.15 ± 0.51
84 | FSIKHPLSSGSKISCVA | -1.23 ± 1.7
85 | FSKVGCDKVIRPGKVPFRSF | 0.491 ± 0.9

— the supplement of paper PMC12042874
